What all share (experiment): FRET or BRET
On the technique in general: Bioluminescence resonance energy transfer reports proximity on the nanometre scale.

Assay [1] has as its target OT-I TCR vβ5 chain.
Assay [2] has as its target P14 TCR vβ8 chain.
The target in assay [3] is P14 TCR vβ8 chain. This is another data set of the same source.
Assay [4] concerns the target OT-I TCR vβ5 chain. This is another data set of the same source.
Assay [5] concerns the target OT-I TCR vβ5 chain. This is another data set of the same source.
Assay [6] deals with P14 TCR vβ8 chain. The source holds these as a separate data set.
For assay [7], the target named is P14 TCR vβ8 chain. This is another data set of the same source.
The target in assay [8] is P14 TCR vβ8 chain. The source holds these as a separate data set.
For assay [9], the target named is OT-I TCR vβ5 chain. The source holds these as a separate data set.
Assay [10] deals with P14 TCR vβ8 chain. This is another data set of the same source.
Assay [11] concerns the target P14 TCR vβ8 chain. This is another data set of the same source.

From paper PMC4209802 come the findings set out here.

Read-outs that look alike come from different tables or passages of the source.

Consider “OT-I TCR vα2 chain with N-terminal HA tag”, for which the FRET efficiency with OT-I TCR vβ5 chain [1] was found to be 25%; in the assay with P14 TCR vβ8 chain [2], 21%; with P14 TCR vβ8 chain [3], 16%; with OT-I TCR vβ5 chain [4] it was 33.7%; in the assay with OT-I TCR vβ5 chain [5], 32.5%; with P14 TCR vβ8 chain [6], 22.6%.

As to “P14 TCR vα2 chain with two N-terminal myc tags”, the FRET efficiency in the assay with P14 TCR vβ8 chain [7] was found to be 35%; with OT-I TCR vβ5 chain [1], 12%; with P14 TCR vβ8 chain [2] it was 19%; with P14 TCR vβ8 chain [8] it was 27%; in the assay with P14 TCR vβ8 chain [3], 10%; with OT-I TCR vβ5 chain [9] it was 28%. Further, the FRET efficiency worked out at 26% in the assay with P14 TCR vβ8 chain [10], 27% with P14 TCR vβ8 chain [11], 12% with OT-I TCR vβ5 chain [5] and 23.3% in the assay with P14 TCR vβ8 chain [6].
